Molecular target: srk2e_arath SRK2E (UniProt Q940H6)
Sequence (Q940H6 whole entry): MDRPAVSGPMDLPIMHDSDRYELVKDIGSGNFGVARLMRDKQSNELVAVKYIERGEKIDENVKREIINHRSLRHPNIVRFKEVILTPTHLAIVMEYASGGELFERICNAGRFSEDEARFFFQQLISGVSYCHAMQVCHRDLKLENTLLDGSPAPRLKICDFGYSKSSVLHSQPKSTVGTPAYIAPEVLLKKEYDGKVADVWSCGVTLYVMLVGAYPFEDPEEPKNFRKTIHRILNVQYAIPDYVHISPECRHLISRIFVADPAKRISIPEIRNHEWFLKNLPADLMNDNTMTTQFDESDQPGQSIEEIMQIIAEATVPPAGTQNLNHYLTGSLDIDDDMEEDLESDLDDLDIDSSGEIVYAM

effect of a mutation on the interaction: decreasing interaction
Substance: Respiratory burst oxidase homolog protein F (Arabidopsis thaliana (Mouse-ear cress)), O48538 S174A
